Results on one molecule are retold here after paper PMC10415362, “Mechanism of U6 snRNA oligouridylation by human TUT1”.

The data set has as its target T1, hTUT1_ZF-RRM (Homo sapiens, UniProt Q9H6E5 1-140).
T1 sequence: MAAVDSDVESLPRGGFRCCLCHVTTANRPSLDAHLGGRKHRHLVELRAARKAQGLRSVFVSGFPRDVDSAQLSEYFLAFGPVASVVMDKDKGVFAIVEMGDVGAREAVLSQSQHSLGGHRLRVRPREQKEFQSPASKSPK
As to the kind of experiment: EMSA; 10 mM MgCl2; EMSA: 50 mM Tris-Cl pH 8.5, 100 mM NaCl, 10 mM MgCl2, 10 mM beta-mercaptoethanol, 10% glycerol, room temperature 15 min; RNA 50 nM (U6) or 100 nM (U6_mini); protein 0-1000 nM. The following applies: protein: recombinant; tags: His tag implied (pET22b, Ni-NTA); hairpin with 5' single strand.

B1: U6_mini (structured_RNA)
RNA: GGAUACUAAAAUUGGAACGAUACAGAGUUCGCUCGUGAAGCGUUCCAUAUUUU
B1: the Kd was found to be 204 ± 41 nM.
